Source: paper doi:10.1101/2022.09.30.510402

Target: modified αM subunit in which the αMI-domain was deleted (I-less form of Mac-1) (human) (UniProt P11215)
Test: co-IP

Sequence of CD47 (Q08722 19-323): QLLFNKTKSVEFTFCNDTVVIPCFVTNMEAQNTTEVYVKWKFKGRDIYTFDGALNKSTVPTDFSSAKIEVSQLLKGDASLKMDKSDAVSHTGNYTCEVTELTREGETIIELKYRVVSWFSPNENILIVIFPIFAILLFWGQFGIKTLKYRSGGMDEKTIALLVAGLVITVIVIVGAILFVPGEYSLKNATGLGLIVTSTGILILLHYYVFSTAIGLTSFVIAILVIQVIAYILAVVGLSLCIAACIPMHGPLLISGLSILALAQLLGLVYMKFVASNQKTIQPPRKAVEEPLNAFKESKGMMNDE

CD47 (from UniProt Q08722 19-323) (natural protein)
fold more CD47 bound than by the whole integrin: 1.5
